Consider two molecules from patent US20250075249A1 (QUEENSLAND UNIVERSITY OF TECHNOLOGY, published 2025).

Assay in all cases: cell-based or functional assay
The target of experiment [1] is FKBP-2CaM-Tre-FKBP fusion protein.
For the next experiment, the target named is FKBP-2CaM-BLA-FKBP.
Experiment [2] deals with Tre G104_P321 CaM chimera.

By EC50 (read off the curve) is commonly meant the concentration at which the effect is half-maximal.

B1: FRB-CaM-BP (fusion of FRB and a low affinity calmodulin binding peptide) (other)
chain: AHHHHHHSSGTRVAILWHEMWHEGLEEASRLYFGERNVKGMFEVLEPLHAMMERGPQTLKETSFNQAYGRDLMEAQEWCRKYMKSGNVKDLTQAWDLYYHVFRRISGGSGGSGSGSGGSGGKRRWKKNFIAVSAANR
On to B1, for which the “apparent Kd from titration with rapamycin (small molecule varied; 100 nM 2FKBP-Tre-2CaM, 200 nM FRB-CaM-BP; trehalase activity)” value in experiment [1] turned out to be 89 nM. Moreover, the “apparent Kd from titration with rapamycin (small molecule varied; 25 nM BLA-2CaM-2FKBP, 100 nM FRB-CaM-BP; β-lactamase activity)” value with FKBP-2CaM-BLA-FKBP worked out at 11 nM. KRRWKKNFIAVSAANRFKKISSSGAL (peptide, UniProt P07313 578-603, looked up) [M13 calmodulin binding peptide]: the “EC50 (read off the curve)” value in experiment [2] was about 60 nM.
